Data published in patent EP4803548A1 (Beijing Wisdomab Biotechnology Co., Ltd, dated 2026).
Substitutions are numbered along the chain they refer to. Where two headings read alike, the source gives them in different places.

B1: TCRm×CD3 bispecific antibody 2N1B5+IMCR (bispecific antibody)
chain 1: QVQLVESGGGSVQAGGSLRLSCAASDDTYMTNCMGWFRQAPGKEREGVAAIYTGGGRAVYADSVRGRFTISQDNAKNTVYLQMNSLKPEDTAMYYCAADWLGPDMTDIQVLGALPWFNYWGQGTLVTVSSGGGGSGGGGSGGGGSQVQLVESGGGSVQAGGSLRLSCAASDDTYMTNCMGWFRQAPGKEREGVAAIYTGGGRAVYADSVRGRFTISQDNAKNTVYLQMNSLKPEDTAMYYCAADWLGPDMTDIQVLGALPWFNYWGQGTLVTVSSASERKSSVECPPCPAPEFEGGPSVFLFPPKPKDTLMISRTPEVTCVVVDVSQEDPEVQFNWYVDGVEVHNAKTKPREEQYNSTYRVVSVLTVLHQDWLNGKEYKCKVSNKALPASIEKTISKAKGQPREPQVCTLPPSQEEMTKNQVSLSCAVKGFYPSDIAVEWESNGQPENNYKTTPPVLDSDGSFFLVSKLTVDKSRWQEGNVFSCSVMHEALHNHYTQKSLSLSPGK
chain 2: not shown
B2: TCRm×CD3 bispecific antibody 2N1B5-h4+IMCR (bispecific antibody)
chain 1: B1 chain 1 with Q1E, S11L, A14P, E46V, Q146E, S156L, A159P, E191V
chain 2: not shown
B3: N1B5-h4-Fc recombinant protein (humanized anti-HLA-A02/HBsAg complex TCRm antibody N1B5-h4) (Fc fusion)
chain: EVQLVESGGGLVQPGGSLRLSCAASDDTYMTNCMGWFRQAPGKERVGVAAIYTGGGRAVYADSVRGRFTISQDNAKNTVYLQMNSLKPEDTAMYYCAADWLGPDMTDIQVLGALPWFNYWGQGTLVTVSS
B4: N1B5-Fc recombinant protein (anti-HLA-A02/HBsAg complex TCRm antibody N1B5) (Fc fusion, not shown: a dimerising Fc or GST)
chain: B3 chain with E1Q, L11S, P14A, V46E

Assays:
[1] = target: T1, HLA-A02/HBsAg348-357 (…) complex on the cell surface (human; human (Homo sapiens) as printed …); test: cell-based or functional assay
[2] = target: T1, HLA-A02/HBsAg348-357 (…) complex on the …; test: cell-based or functional assay; remark: listed apart in the source
[3] = target: T1, HLA-A02/HBsAg348-357 (…) complex on the …; test: cell-based or functional assay; remark: listed apart in the source
[4] = target: T1, HLA-A02/HBsAg348-357 (…) complex on the …; test: cell-based or functional assay; remark: listed apart in the source
[5] = target: T2, HLA-A02 complex presenting … (MIP-H1-01), disulfide trap single-chain trimer; test: SPR Biacore T200; method of Section 3.1
CD3D-CD3E-mFc = target: T3, CD3D-CD3E-mFc (human; mouse); test: SPR Biacore T200; method of Section 3.1, CD3D-CD3E-mFc as antigen
T3 construct: also called antigen CD3D-CD3E-mFc
T3 chain 1: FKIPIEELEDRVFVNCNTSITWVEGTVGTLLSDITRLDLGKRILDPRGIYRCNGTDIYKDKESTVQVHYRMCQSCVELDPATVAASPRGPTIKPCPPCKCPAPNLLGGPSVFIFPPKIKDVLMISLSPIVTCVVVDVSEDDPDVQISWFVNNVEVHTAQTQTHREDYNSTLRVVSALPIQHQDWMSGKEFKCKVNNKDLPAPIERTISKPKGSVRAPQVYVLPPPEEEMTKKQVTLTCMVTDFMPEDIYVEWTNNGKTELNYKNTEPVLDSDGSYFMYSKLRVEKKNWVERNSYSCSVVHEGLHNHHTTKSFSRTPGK
T3 chain 2: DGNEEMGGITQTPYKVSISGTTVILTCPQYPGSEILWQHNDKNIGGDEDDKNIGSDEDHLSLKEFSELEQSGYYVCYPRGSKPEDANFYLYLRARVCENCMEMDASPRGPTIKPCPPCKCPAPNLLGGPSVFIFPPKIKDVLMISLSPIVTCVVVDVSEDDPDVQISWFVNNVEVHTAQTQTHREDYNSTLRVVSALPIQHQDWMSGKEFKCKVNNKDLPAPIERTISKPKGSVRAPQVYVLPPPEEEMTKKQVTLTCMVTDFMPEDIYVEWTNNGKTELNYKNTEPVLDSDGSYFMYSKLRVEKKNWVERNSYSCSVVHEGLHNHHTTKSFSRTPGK

[6] = target: T2, HLA-A02 complex presenting … …
[7] = target: T2, HLA-A02 complex presenting … …; remark: listed apart in the source

Row | Binder | EC50 of activation of Jurkat-Dual cells by targeting antigen peptide-pulsed T2 cells (QUANTI-Luc) [1] | EC50 of activation of Jurkat-Dual cells by targeting HLA-A02+/HBsAg+ tumor cells HepG2-HBsAg (QUANTI-Luc) [2] | EC50 of killing of antigen peptide-pulsed T2 cells by PBMCs (LDH release) [3] | EC50 of killing of HepG2-HBsAg cells by PBMCs (LDH release) [4] | Kd [5] | koff [5] | kon [5] | Kd (CD3D-CD3E-mFc) | koff (CD3D-CD3E-mFc) | kon (CD3D-CD3E-mFc) | Kd [6] | koff [6] | kon [6] | Kd [7] | koff [7] | kon [7]
1 | B1 | 0.00241 nM | 0.389 nM | 0.000278 nM | 0.00883 nM | 0.237 nM | 0.000145 s⁻¹ | 613000 M⁻¹ s⁻¹ | 2.96 nM | 0.000175 s⁻¹ | 59200 M⁻¹ s⁻¹ | – | – | – | – | – | –
2 | B2 | – | – | 0.000209 nM | 0.00952 nM | 0.531 nM | 0.00014 s⁻¹ | 263000 M⁻¹ s⁻¹ | 2.04 nM | 0.000132 s⁻¹ | 64700 M⁻¹ s⁻¹ | – | – | – | – | – | –
3 | B3 | – | – | – | – | – | – | – | – | – | – | 0.191 nM | 0.000125 s⁻¹ | 656000 M⁻¹ s⁻¹ | – | – | –
4 | B4 | – | – | – | – | – | – | – | – | – | – | – | – | – | 0.14 nM | 9.7e-05 s⁻¹ | 692000 M⁻¹ s⁻¹
